These results are taken from US20100048413.

This series has as its system aspRS-OB wild type (anticodon-binding OB-fold domain of aspartyl-tRNA synthetase) (Pyrobaculum aerophilum). The series can be described thus: pulldown. Particulars: phage binding to immobilised tRNA; RNase A elution; VCS-M13 without display 1.42.

“asp-tRNA (P. aerophilum, in vitro transcript)” gave a binding signal (fold recovery over beads only) of 190.
